Laboratory results: patent US20110045534A1
Values joined by “and” are separate entries in the source; they are usually repeats but may differ in a detail not shown here. Equal values may be shown once.

Columns and labels:
[1] = molecular target: immunizing peptide for ERK2p; assay: ELISA on coated peptide; supernatant 1/10
[2] = molecular target: immunizing peptide for MRPL11; assay: ELISA on coated peptide; supernatant 1/10
[3] = molecular target: immunizing peptide for SUZ12; assay: ELISA on coated peptide; supernatant 1/10
[4] = molecular target: immunizing peptide for ERK2p; assay: ELISA on coated peptide; supernatant 1x
[5] = molecular target: immunizing peptide for MRPL11; assay: ELISA on coated peptide; supernatant 1x
[6] = molecular target: immunizing peptide for SUZ12; assay: ELISA on coated peptide; supernatant 1x

B1: anti-MRPL11 rabbit IgG expressed from the H-2A-L cassette (antibody)
heavy: QSVEESGGRLVKPDETLTITCTVSGIDLNNNAMGWVRQAPGEGLEYIGFIGGSGATYYSTWAKGRFTISKSSTTVDLMITSPTTEDTATYFCARYAGSGSFDFSGPGTLVTVSLGQPKAPSVFPLAPCCGDTPSSTVTLGCLVKGYLPEPVTVTWNSGTLTNGVRTFPSVRQSSGLYSLSSVVSVTSSSQPVTCNVAHPATNTKVDKTVAPSTCSKPTCPPPELLGGPSVFIFPPKPKDTLMISRTPEVTCVVVDVSQDDPEVQFTWYINNEQVRTARPPLREQQFNSTIRVVSTLPIAHQDWLRGKEFKCKVHNKALPAPIEKTISKARGQPLEPKVYTMGPPREELSSRSVSLTCMINGFYPSDISVEWEKNGKAEDNYKTTPAVLDSDGSYFLYSKLSVPTSEWQRGDVFTCSVMHEALHNHYTQKSISRSPGKEGRGSLLTCGDVEENPG
light: QVLTQTPSPVSAAVGNTVTINCQASQSVRDNNYLSWYQQKPGQPPKLLIYRASTLESGVPSRFKGNGSGTQFTLTISDLECDDAATYYCQGGYGGNFFPFGGGTEVVVKGDPVAPTVLIFPPAADQVATGTVTIVCVANKYFPDVTVTWEVDGTTQTTGIENSKTPQNSADCTYNLSSTLTLTSTQYNSHKEYTCKVTQGTTSVVQSFNRGDC
In the case of B1, the absorbance (OD 450 nm) [1] is reported as 0.0478 OD450 and 0.0482 OD450, the absorbance (OD 450 nm) [2] is reported as 0.972 OD450 and 1.04 OD450 and the absorbance (OD 450 nm) [3] is reported as 0.0461 OD450 and 0.0445 OD450. For the same binder, the absorbance (OD 450 nm) [4] was 0.0534 OD450 and 0.0524 OD450, the absorbance (OD 450 nm) [5] was 1.01 OD450 and 1.06 OD450 and the absorbance (OD 450 nm) [6] was 0.0487 OD450 and 0.0489 OD450.

B2: anti-MRPL11 rabbit IgG expressed from two separate vectors (H + L positive control) (antibody)
heavy: QSVEESGGRLVKPDETLTITCTVSGIDLNNNAMGWVRQAPGEGLEYIGFIGGSGATYYSTWAKGRFTISKSSTTVDLMITSPTTEDTATYFCARYAGSGSFDFSGPGTLVTVSLGQPKAPSVFPLAPCCGDTPSSTVTLGCLVKGYLPEPVTVTWNSGTLTNGVRTFPSVRQSSGLYSLSSVVSVTSSSQPVTCNVAHPATNTKVDKTVAPSTCSKPTCPPPELLGGPSVFIFPPKPKDTLMISRTPEVTCVVVDVSQDDPEVQFTWYINNEQVRTARPPLREQQFNSTIRVVSTLPIAHQDWLRGKEFKCKVHNKALPAPIEKTISKARGQPLEPKVYTMGPPREELSSRSVSLTCMINGFYPSDISVEWEKNGKAEDNYKTTPAVLDSDGSYFLYSKLSVPTSEWQRGDVFTCSVMHEALHNHYTQKSISRSPGK
light: B1 light
B2 showed an absorbance (OD 450 nm) [1] of 0.0629 OD450, an absorbance (OD 450 nm) [2] of 1.01 OD450 and an absorbance (OD 450 nm) [3] of 0.0485 OD450. For the same binder, the absorbance (OD 450 nm) [4] was 0.0575 OD450, the absorbance (OD 450 nm) [5] was 0.971 OD450 and the absorbance (OD 450 nm) [6] was 0.0474 OD450.

B3: anti-MRPL11 rabbit IgG expressed from the L-2A-H cassette (antibody)
light: QVLTQTPSPVSAAVGNTVTINCQASQSVRDNNYLSWYQQKPGQPPKLLIYRASTLESGVPSRFKGNGSGTQFTLTISDLECDDAATYYCQGGYGGNFFPFGGGTEVVVKGDPVAPTVLIFPPAADQVATGTVTIVCVANKYFPDVTVTWEVDGTTQTTGIENSKTPQNSADCTYNLSSTLTLTSTQYNSHKEYTCKVTQGTTSVVQSFNRGDCEGRGSLLTCGDVEENPG
heavy: B2 heavy
In the case of B3, the absorbance (OD 450 nm) [1] is reported as 0.0621 OD450 and 0.0483 OD450, the absorbance (OD 450 nm) [2] is reported as 1.14 OD450 and 0.99 OD450 and the absorbance (OD 450 nm) [3] is reported as 0.0486 OD450 and 0.0529 OD450. For the same binder, the absorbance (OD 450 nm) [4] was 0.0663 OD450 and 0.0671 OD450, the absorbance (OD 450 nm) [5] was 0.973 OD450 and 0.998 OD450 and the absorbance (OD 450 nm) [6] was 0.0542 OD450 and 0.0585 OD450.
